We go through 3 substances from patent US20260193363A1.

In assay [1] the target is EGFR overexpressed on cancer cell lines MDA-MB-468 and A431 (human) (UniProt P00533). Nature of the assay: flow cytometry, antibodies added at 2 µg/ml, A431 cells. Background: A flow cytometer gives signals particle by particle.
Assay [2] concerns the target wtEGFR at physiological levels on WI-38 cells (human) (UniProt P00533). The experiment in a line: flow cytometry, antibodies added at 2 µg/ml, WI-38 cells.
Assay [3] addresses wild-type EGFR on F98EGFR cells (rat glioma F98 transfected with full-length EGFR) (UniProt P00533). The experiment in a line: flow cytometry, antibodies added at 2 µg/ml, F98-EGFR cells.
The target in assay [4] is EGFR overexpressed on cancer cell lines MDA-MB-468 and A431 (human) (UniProt P00533). The experiment in a line: flow cytometry, antibodies added at 2 µg/ml, MDA-MB-468 cells.
The target of assay [5] is EGFRvIII on F98npEGFRvIII cells (rat glioma F98 transfected with nonphosphorylated EGFRvIII). The experiment in a line: flow cytometry, antibodies added at 2 µg/ml, F98-npEGFRvIII cells.
Assay [6] addresses EGFR and EGFRvIII on GBM39 cells (patient derived xenograft glioblastoma line). Nature of the assay: flow cytometry on GBM39 cells, antibody at 2 µg/ml.
Assay [7] has the same target. Nature of the assay: flow cytometry on GBM39 cells, antibody at 20 µg/ml.
For assay [8], the target named is wtEGFR at physiological levels on WI-38 cells (human) (UniProt P00533). Nature of the assay: flow cytometry on WI-38 cells, antibody at 2 µg/ml.
Assay [9] deals with EGFR and EGFRvIII on GBM39 cells (patient derived xenograft glioblastoma line). The experiment in a line: flow cytometry on GBM39 cells, antibody at 0.2 µg/ml.
The target of assay [10] is wild-type EGFR on F98EGFR cells (rat glioma F98 transfected with full-length EGFR) (UniProt P00533). The experiment in a line: flow cytometry on F98EGFR cells, antibody at 2 µg/ml.
Assay [11] has as its target EGFRvIII on DKMG-EGFRvIII cells (human glioblastoma line DKMG transduced with EGFRvIII). Nature of the assay: flow cytometry on DKMG-EGFRvIII cells, antibody at 1 µg/ml.
Assay [12] has the same target. The experiment in a line: flow cytometry on DKMG-EGFRvIII cells, antibody at 10 µg/ml.
For assay [13] the target is unchanged. Nature of the assay: flow cytometry on DKMG-EGFRvIII cells, antibody at 0.1 µg/ml.

As to IgG1 Iso Con (antibody), the Median : PE-A in assay [1] came out at 34.3; in assay [2], 48; in assay [3] it was 32.6; in assay [4], 34.9; in [5], 26.2.
Turning to IgG2 Iso Con (antibody), the Median : PE-A in assay [1] was determined as 31.2; in assay [2], 47.6; in assay [3] it was 33.5; in [4], 34.1; in [5] it was 26.9.
Take monoclonal antibody ma528: the median fluorescent intensity in assay [6] was determined as 29800; in assay [7] it was 30300; in [9] it was 12700; in assay [11], 14300; in assay [12], 13500; in assay [13], 12900. The GeoMean in assay [8] came out at 2450; in assay [10], 3700. The Median : PE-A worked out at 10700 in assay [1]; 2720 in assay [2]; 4040 in [3]; 6860 in [4]; 4470 in assay [5].
